B1: ZNF263 (parent)
chain: KPYKCTLCGENFSHRSNLIRHQRI

Variants of: B1
Test: protein stability index of a GFP-peptide fusion (GPS, HEK-293T) (PSI 1-6); higher = more stable
Settings: c terminus: a fixed tail appended
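Note: lentivirally expressed fusions sorted by FACS into six bins by GFP to DsRed ratio, PSI derived from sequencing read proportions per bin multiplied by bin number.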

Variant | protein stability index
KPYKCTLCGENNSHRSNLIRHQRI [F12N] | 1.96
KPYKCTLCGENISHRSNLIRHQRI [F12I] | 2.41
KPYKCTLCGENCSHRSNLIRHQRI [F12C] | 2.71
KPYKCTLCGENGSHRSNLIRHQRI [F12G] | 1.8
KPYKCTLCGENTSHRSNLIRHQRI [F12T] | 1.66
KPYKCTLCGENHSHRSNLIRHQRI [F12H] | 2.65
KPYKCTLCGENQSHRSNLIRHQRI [F12Q] | 2.18
KPYKCTLCGENLSHRSNLIRHQRI [F12L] | 2.1
KPYKCTLCGENFSHRSNLIIHQRI [R20I] | 1.81
KPYKCTLCGENFSHRSNLIFHQRI [R20F] | 2.58
KPYKCTLCGENFSHRSNLILHQRI [R20L] | 2.15
KPYKCTLCGENFSHRSNLIYHQRI [R20Y] | 1.68
KPYKCTLCGENFSHRSNLIQHQRI [R20Q] | 2.6
KPYKCTLCGENFSHRSNLIPHQRI [R20P] | 1.7
KPYKCTLCGENFSHRSNLIKHQRI [R20K] | 2.67
KPYKCTLCGENFSHRSNLIDHQRI [R20D] | 2.84
KPYKCTLCGENFSHRSNLFRHQRI [I19F] | 1.88
KPYKCTLCGENFSHRSNLRRHQRI [I19R] | 2.9
KPYKCTLCGENFSHRSNLTRHQRI [I19T] | 2.5
KPYKCTLCGENFSHRSNLKRHQRI [I19K] | 2.65
KPYKCTLCGENFSHRSNLLRHQRI [I19L] | 2.32
KPYKCTLCGENFSHRSNLCRHQRI [I19C] | 4.18
KPYKCTLCGENFSHRSNLSRHQRI [I19S] | 1.88
KPYKCTLCGENFSHRSNLVRHQRI [I19V] | 2.54

Variant | protein stability index
KPYKCTLCGENFSHRSNLIRGQRI [H21G] | 1.83
KPYKCTLCGENFSHRSNLIRMQRI [H21M] | 2.72
KPYKCTLCGENFSHRSNLIRDQRI [H21D] | 2.29
KPYKCTLCGENFSHRSNLIRWQRI [H21W] | 3.53
KPYKCTLCGENFSHRSNLIRCQRI [H21C] | 2.6
KPYKCTLCGENFSHRSNLIRSQRI [H21S] | 1.89
KPYKCTLCGENFSHRSNLIRAQRI [H21A] | 2.13
KPYKCTLCGENFNHRSNLIRHQRI [S13N] | 2.35
KPYKCTLCGENFFHRSNLIRHQRI [S13F] | 2.26
KPYKCTLCGENFLHRSNLIRHQRI [S13L] | 2.32
KPYKCTLCGENFRHRSNLIRHQRI [S13R] | 3.45
KPYKCTLCGENFAHRSNLIRHQRI [S13A] | 2.87
KPYKCTLCGENFYHRSNLIRHQRI [S13Y] | 2.89
KPYKCTLCGENFWHRSNLIRHQRI [S13W] | 2.53
KPYKCTLCGENFCHRSNLIRHQRI [S13C] | 2.4
KPYKCTLCGENFEHRSNLIRHQRI [S13E] | 2.52
KPYKCTLCGENFMHRSNLIRHQRI [S13M] | 2.52
KPYKCTLCGENFIHRSNLIRHQRI [S13I] | 2.67
KCYKCTLCGENFSHRSNLIRHQRI [P2C] | 2.02
KLYKCTLCGENFSHRSNLIRHQRI [P2L] | 2.53
KDYKCTLCGENFSHRSNLIRHQRI [P2D] | 2.3
KHYKCTLCGENFSHRSNLIRHQRI [P2H] | 2.49
KIYKCTLCGENFSHRSNLIRHQRI [P2I] | 2.33
KGYKCTLCGENFSHRSNLIRHQRI [P2G] | 2.77

Variant | protein stability index
KNYKCTLCGENFSHRSNLIRHQRI [P2N] | 2.49
KFYKCTLCGENFSHRSNLIRHQRI [P2F] | 2.12
KPHKCTLCGENFSHRSNLIRHQRI [Y3H] | 1.34
KPGKCTLCGENFSHRSNLIRHQRI [Y3G] | 1.84
KPIKCTLCGENFSHRSNLIRHQRI [Y3I] | 1.55
KPKKCTLCGENFSHRSNLIRHQRI [Y3K] | 3.17
KPLKCTLCGENFSHRSNLIRHQRI [Y3L] | 2.64
KPFKCTLCGENFSHRSNLIRHQRI [Y3F] | 2.23
KPYKCTRCGENFSHRSNLIRHQRI [L7R] | 2.28
KPYKCTACGENFSHRSNLIRHQRI [L7A] | 3.07
KPYKCTECGENFSHRSNLIRHQRI [L7E] | 3.63
KPYKCTICGENFSHRSNLIRHQRI [L7I] | 3.06
KPYKCTTCGENFSHRSNLIRHQRI [L7T] | 2.51
KPYKCTGCGENFSHRSNLIRHQRI [L7G] | 2.18
KPYKCTCCGENFSHRSNLIRHQRI [L7C] | 3.9
KPYKITLCGENFSHRSNLIRHQRI [C5I] | 1.75
KPYKSTLCGENFSHRSNLIRHQRI [C5S] | 2.43
KPYKWTLCGENFSHRSNLIRHQRI [C5W] | 1.61
KPYKTTLCGENFSHRSNLIRHQRI [C5T] | 2.09
KPYKETLCGENFSHRSNLIRHQRI [C5E] | 2.19
KPYKRTLCGENFSHRSNLIRHQRI [C5R] | 1.86
KPYKHTLCGENFSHRSNLIRHQRI [C5H] | 2.34
KPYKNTLCGENFSHRSNLIRHQRI [C5N] | 2.41
KPYKLTLCGENFSHRSNLIRHQRI [C5L] | 2.47

Variant | protein stability index
KPYKCTLCGNNFSHRSNLIRHQRI [E10N] | 2.24
KPYKCTLCGDNFSHRSNLIRHQRI [E10D] | 2.25
KPYKCTLCGTNFSHRSNLIRHQRI [E10T] | 2.06
KPYKCTLCGINFSHRSNLIRHQRI [E10I] | 2.35
KPYKCTLCGHNFSHRSNLIRHQRI [E10H] | 2.71
KPYKCTLCGYNFSHRSNLIRHQRI [E10Y] | 1.69
KPYCCTLCGENFSHRSNLIRHQRI [K4C] | 1.7
KPYICTLCGENFSHRSNLIRHQRI [K4I] | 2.87
KPYFCTLCGENFSHRSNLIRHQRI [K4F] | 2.01
KPYTCTLCGENFSHRSNLIRHQRI [K4T] | 2.52
KPYVCTLCGENFSHRSNLIRHQRI [K4V] | 2.87
KPYSCTLCGENFSHRSNLIRHQRI [K4S] | 1.9
KPYGCTLCGENFSHRSNLIRHQRI [K4G] | 2.35
KPYPCTLCGENFSHRSNLIRHQRI [K4P] | 1.96
KPYKCTLCGENFSHRYNLIRHQRI [S16Y] | 2.91
KPYKCTLCGENFSHRENLIRHQRI [S16E] | 2.53
KPYKCTLCGENFSHRDNLIRHQRI [S16D] | 2.74
KPYKCTLCGENFSHRCNLIRHQRI [S16C] | 2.41
KPYKCTLCGENFSHRRNLIRHQRI [S16R] | 3.92
KPYKCTLCGENFSHRGNLIRHQRI [S16G] | 1.94
KPYKCTLCGENFSHRQNLIRHQRI [S16Q] | 2.81
KPYKCTLCGENFSHRPNLIRHQRI [S16P] | 1.77

From the supplement of paper PMC10567573
